Assays:
[1] = SEC; analytical SEC, Superdex 75 Increase 10/300 GL; 100 μL of protein solution (1.0 mg·mL^−1); 20 mM Tris–HCl (pH 8.0), 150 mM NaCl; masses from a calibration standard; self-association, dimer to monomers
[2] = target: TTE^Δ110, TTE0866 with the N-terminal 110 residues truncated (Caldanaerobacter subterraneus subsp. tengcongensis); assay: as above

stoichiometry N [2]	Substance	percent dimer (SEC peak area) [1]
	TTE^Δ110, TTE0866 with the N-terminal 110 residues truncated	the dimer‐to‐monomer percentage of TTE^Δ110 was 20% and 80%
2	TTE^Δ110, TTE0866 with the N-terminal 110 residues truncated (domain or fragment)	

From paper PMC9527590, “Functional analysis of the N‐terminal region of acetylxylan esterase from Caldanaerobacter subterraneus subsp. tengcongensis” (FEBS Open Bio, 2022)
